The text below walks through data of patent publication US20250136910A1, “DEVICES FOR USE AS BLOOD BRAIN BARRIER MODELS” (Merck Sharp & Dohme LLC, priority 2023, published 2025).

One experiment relates to GFP HBMECs. Nature of the experiment: Ang-1 addition to perfusion media, serpentine gel endothelialized with GFP HBMECs. The class given is cell-based, human. As to conditions: complete Vasculife 3 days, then Ang-1 at 15 ng/ml for 3 days; perfused at 5 μL min^−1; day 6. As for the experimental part:
GFP HBMECs was seeded in the vascular channel at 30M mL^−1and perfused at 5 μL min^−1for duration of the study. […] Overlay and individual channels of GFP HBMEC and VE-Cadherin shown.
Once this was confirmed using HUVECs, the incorporation of Ang-1 to the perfusion media was tested on a gel endothelialized with GFP HBMECs. The same strategy was employed where the gel was perfused for 3 days with complete Vasculife media, then switched to a Vasculife media where Ang-1 was added in at 15 ng/ml for the remaining three days of perfusion culture. Images of cell morphology in the serpentine on days 3, 6, and after fixing and immunostaining for VE-Cadherin are seen in FIG. 26a. […] A magnified portion of the center channel is shown in FIG. 26b, which highlights the morphology of the GFP HBMECs and VE-Cadherin and includes nuclei in the overlay.

The subject of the next experiment is GFP HUVECs. Put plainly: Ang-1 addition to perfusion media, channels endothelialized with GFP HUVECs. The format is cell-based, human. Conditions: complete Vasculife (with VEGF) 3 days, then Ang-1 added 15 ng mL^−1; perfused at 5 μL min^−1. As for the experimental part:
FIGS. 25a-25c show immunostained VE-Cadherin junctions for channels endothelialized with GFP HUVECs (30M mL^−1) after being exposed to different media compositions. […] This gel was sustained for a total of twelve days while being perfused at 5 μL min^−1.
For the HUVECs, a mature monolayer was able to be obtained through modulation of the media composition and utilizing biomolecules that play an important role in endothelial cell function. In addition to the removal of VEGF, another avenue explored was the addition of Angiopoetin-1 (Ang-1). Angiopoetin-1 is a glycoprotein that is a known ligand for the endothelial cell-specific receptor tyrosine kinase, Tie-2 receptor. In vascular development during embryogenesis, VEGF and Ang-1 play essential and complementary roles. Vascular endothelial growth factor (VEGF) is responsible for the initial formation of the vascular plexus, while Angiopoetin-1 (Ang-1) is responsible for the subsequent remodeling of the vasculature into a network of mature vessels. […] The incorporation of this glycoprotein was first assessed using hydrogels endothelialized with GFP HUVECs. Three different media strategies were employed to assess the effect of adding Ang-1 to the perfusion media. […]

B1: Ang-1: glycoprotein that is a known ligand for the endothelial cell-specific receptor tyrosine kinase, Tie-2 receptor (protein, UniProt Q15389 16-498, looked up)
Angiopoietin-1: HIGCSNQRRSPENSGRRYNRIQHGQCAYTFILPEHDGNCRESTTDQYNTNALQRDAPHVEPDFSSQKLQHLEHVMENYTQWLQKLENYIVENMKSEMAQIQQNAVQNHTATMLEIGTSLLSQTAEQTRKLTDVETQVLNQTSRLEIQLLENSLSTYKLEKQLLQQTNEILKIHEKNSLLEHKILEMEGKHKEELDTLKEEKENLQGLVTRQTYIIQELEKQLNRATTNNSVLQKQQLELMDTVHNLVNLCTKEGVLLKGGKREEEKPFRDCADVYQAGFNKSGIYTIYINNMPEPKKVFCNMDVNGGGWTVIQHREDGSLDFQRGWKEYKMGFGNPSGEYWLGNEFIFAITSQRQYMLRIELMDWEGNRAYSQYDRFHIGNEKQNYRLYLKGHTGTAGKQSSLILHGADFSTKDADNDNCMCKCALMLTGGWWFDACGPSNLNGMFYTAGQNHGKLNGIKWHYFKGPSYSLRSTTMMIRPLDF
On to B1, for which the “endothelium confluence by VE-Cadherin immunostaining” value with GFP HBMECs is reported as “a confluent endothelium of brain microvascular endothelial cells lining the serpentine channel has been achieved”. Further, the “endothelial monolayer retention in perfusion culture” value in the experiment with GFP HUVECs is reported as “retained an endothelial monolayer for twelve days of perfusion culture”.
